Assay: yeast display, Sf9 membrane polyspecificity reagent, FACS + sequencing; frameworks hold sequencing errors
Method in brief: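 Synthetic nanobody libraries on Saccharomyces cerevisiae BJ5465 were galactose-induced for 36–48 hours, stained 1 hour at 4 °C with 10% biotinylated, detergent-solubilized Sf9 membrane reagent and enriched on streptavidin microbeads. FACS then separated cells into low and high (top ~1%) gates by anti-HA (expression) and streptavidin (reagent binding) fluorescence. Genes were colony-PCR amplified, MiSeq 2 × 250 sequenced and CDR-length filtered. A clone's polyreactivity label is that of its gate of origin.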

| Sequence | polyreactivity (PSR sort gate) |
| --- | --- |
| QVQLVESGGGLVQAGGSLRLSCAASGSTSDEYAMGWYRPAPGKERELVASISSDDTSTHYADSVKGRFTISRDNAKNTVYLQMNSLKPEDTAVYYCAARNTPAYIDYNYWGQGTQVTVSS | low polyreactivity |
| QVQLVESGGGLVQAGGSLRLICAASGSTLFTYAMVWYRQAPGKERELVAAITSSGSTYYADSVKGRFTISRDNAKNTVYLQMNSLKQEDTAVYYCAVPGYRYTNYYYWGQGTQVTVSS | low polyreactivity |
| QVQLVESGGGLVQAGGSLRLSCAASGSTFAPNAMGWYRQAPGKERELVAAISSGSSTYYADSVKGRFTISRDNAKNTVYLQMNSLKPEDTAVYYCARRVSWGYYYWGQGTQVTVSS | high polyreactivity |
| QVQLVESGGGLVQAGGSLRLSCAASGSIFRSNAMGWYRQAPGQERELVAAISRSGGRTYYADSVKGRFTISRDNAKNTVYLQMNSLKPEDTAVYYCAAQVVRSLKYEYWGQGTQLTVSS | high polyreactivity |
| QVQLVESGGGLVQAGGSLRLSCAASGSIFRINVMGWYRQAPGKERELVAAITRGDSTNYADSVKGRFTISRDNAKNSVYLQMNSLKPEDTAVYYCAAGYYYYLRDHDYWGQGTQVTVSS | low polyreactivity |
| QVQLVESGGGLVQAGGSLRLSCAPSGLILDGNVMGWYRQAPGTERELVAAINTSGGSTYYADSVKGRFTISRDNAKNTVYLQMNSLKPEDTAVYYCAARYPTDYDYWGQGTQVTVSS | low polyreactivity |
| QVQLVESGGGLVQAGGSLRLSSAASGSTFPDYDMGWYRQAPGKERELVAAITSSGGITYYADSVKGRFTISRDNAKNTVYLQMNSLKPEDTSVSYCAAYGYGSNYRYTGYYYWGQGTEVTVSS | low polyreactivity |
| QVQLVESGGGLVQAGGSLRLSCAASGSTFYSYAMGWYRQAPGKERELVAAITSRGDRTYYADSVKGRFTISRDNAKNTVYLQMNSLKPEDTAVYYCAAEQSWQGYAYYYWGQGTQVTVSS | high polyreactivity |
| QVQLVESGGGLVQAGGSLRLSCAASGITFPWYAMGWYRQAPGKERELVASKTSGASTNYADSVKGRFTISRDNAKNTVYLQMNSLKPEYSAVYYCARDWYSPVYWAAGYDAWGSGYDYWGQGTQVTVSS | high polyreactivity |
| QVQLVESGGGLVQAGGSLRLSCAASGFILDYNAMGWYRQAPGKERELVAAITSGGSTNYADSVKGRFTISRDNAKNTVYLQMNSLKPEDTAVYYCNVRSVSPVHDDGSWGQGTQVTVSS | low polyreactivity |
| QVQLVESGGGLVQAGGSLRLSCAASGLTIQRNDMGWYRQAPGKEREFVATITSNAGSTYYADSVKGRFTISRDNAKNTVYLQMNSLKPEDTAVYYCARERWWGDGYWGQGTQVTVSS | high polyreactivity |
| QVQLVESGGGFVQAGGSLRLSCAASGSTFPVYAMGWYRQAPGKERELVAAISRSGASTYYADSVKGRFTISRDNAKNTVYLQMNSLKPEDTAVYYCARGYQGRLKNEYWGQGTQVNVSS | low polyreactivity |
| QVQLVESGGGLVQAGGSLRLTCAASGSIFTAYAMRLYRQAPGKERELVAAIDDSGDSTYYADSVKGRFTISRDNAKITVYLQMNSLKPEDTAVYYCKAEYRVNKEYDYWGQGTQVTVSS | low polyreactivity |
| QVQLVESGGGLVQAGGSLRLSCAASGRIFDGYAMGWYRQAPGKERELVATITRGGSTNYADSVKRPFTISRDNAKNTVYIQMNSLKPEDTAVYYCNADIRRHGGYAHEYWGEGTQVTVSS | low polyreactivity |
| QVQLVESGGGLVQAGGSLRLSCAASGNTFYYYAMGWYRQAPGKERELVASITSTARTYYADSVKGRFTISRDNAKNTVYLQMNSLKPEDTAVYYCNAKEHYATRSDSWGEGTQVTVSS | high polyreactivity |
| QVQLVESGGGLVQAGGSLRLSCAASGSIFASNSMGWYRQEPGQERELVAAINSGDSTNYADTVKGRFTISRDTAKNTVYLQMNSLKPEDTAVYYCARGLEERYDYWGQRTQVTVSS | low polyreactivity |
| QVQLVESGGGLVQAGGSLRLSCAASGRIFWTYAMGWYSQAPGKERELVASITWSGGSTYYADSVKGRFTISRDNAKNTFYLQMNSLKPEDTAVYYCKTDVLAPYDSGYWGQGTQVTVSS | low polyreactivity |
| QVQLVESGGGLVQAGGSLRLSCAASGITSYPYAMGWYRQAPGKERELVAAISKRGGGTYYADSVKGRFTISRDNAKNTVYLQMNSLKPEDTAVYYCAKSWGPTTYKIVPAYGYWGQGTQVTVSS | high polyreactivity |
| QVQLVESGGGLVQAGGSLRLSCAASVGIFIYNAMGWYRQAPGKEREFVAAINISGGNTYYADSVKGRFTISRDNAKNTVFLQMNSLKPEDTGVYYCAARYASCWWIRYYYWGQGTQVTVSS | high polyreactivity |
| QVQLVESGGGLVQAGGSLRLSCAASGGIFTRNDMGWYRQAPGKERELVAGISWRGGSTYYADSVKGRFTISRDNAKNTVYLQMNSLKPEDTAVYYCAADLDSDFDYWGQGTQVTVSS | low polyreactivity |
| QVQLVESGGGVVQAGGSLRLSCAASGSTFGYYTMGWNRQAPGKERELVAAISRSGCRTYYADSVKGRFTISRDNAMNAVYLHMTSLKPDYTAVYYCNADGTRYAGDDYWGQGSQVTVSS | high polyreactivity |
| QVQLVESWGGLVQAGCSLRLRCAASGRIFGPYAMGWYRQARGQERELVAAISRSGGSTYYADSVKGRFTISRDNAKNTVYLQMKSLNPEDTAVYYCNARFVIYSRVDYWGQGTQVTVSS | low polyreactivity |

| Sequence | polyreactivity (PSR sort gate) |
| --- | --- |
| QVQLVESGGGLLQAGGSLRLSCAASGSTFQWYAMGWYRQAPGKERELVAGITRTGSTYYADSVKGRFTISRDNAKNTVYLQMNSLKPEDTAVYYCAAKWHTASGKYYYWGQGTQVTVSS | high polyreactivity |
| QVQLVESGGGLVQAGGRLRLSCAASGFTFGYYTMGWYRQAPGKESELVASISRTGGRTYADSVKGRFTISRDNAKNTVFLQMNSLKPEDTAVYYCNRKKYFSYPSDYGYGYWGQGTQVTVSS | high polyreactivity |
| QVQLVESGGGLVQAGGSLRLSCAASGRTLGPNAMGWYRQAPGKERELVAGITGRGGITYYTDSEKGRFTISRDNAKNTVYLQMNSLKPEDTAVYYCAARRYRFAGDYRMYYWGQGTQVTVSS | high polyreactivity |
| QVLLVESGGCLVQAGGILRLSCAASGIIFRSNVMGWYRQEPGKASELVAAISTGGGRTYYADSVKGRFTISRDNAKNTVYLQMNSLKPEDTAVYYCATRDIGKQWTRYYYWGQGTQVTVSS | high polyreactivity |
| QVQLEESGGGLGQAGGSLRLTCAASGSIFDTYTMGWYRQATRIEWELVAAITSGTTTTYADSVKGRFTISRDNGLNTVYLKINSLNPEDTAVYYCGARTSGSFDYWGQGPQVTVSS | low polyreactivity |
| QVQLVESGGGLVQAGGSLRLSCAASGRIFSYNAMGWYRQAPGKERELVAAISYGGGRTYYADSVKGRFTISRDNAKNTVYLQMNSLKPEDTAVYYCAATSSLGDFRYDYWRQGTQVTVSS | high polyreactivity |
| QVQLVESGGGLVQAGGSLRLSCAASGSTFTYNTMGWYRQAPGQERELVAAISSGGSTYYADSVKGRFTFSRDNAKNTVSLQMNSLKPEDTAVYYCAARSRYGESPGYYWGQGTQVTVSS | high polyreactivity |
| QVQLVESGGGLVQAGGSLRLSCAASGLIFDCYARGWYRQAPGKERELVAAITYTGGSTYYADSVKGRFTISRDNAKNTDYIQMNSLKPEDTAVYYCAARRQRDRYGYWGQGTQVTVSS | high polyreactivity |
| QVQLVESGGGLVQAGGSLRLSCAASGSTFVSNAMGWYRPAPGKERELVAAINGSGGITYYADSVKGRFTISRDNAKNTVYLQMNSLKPEDTAVYYCAAEYDGPSTWVDYYYHYGYWGQGTQVTVSS | low polyreactivity |
| QVQLVESGGGLVQAGGSLRLSCAASGSIFNRYAMGWYRKAPGKERELVAAMSSTGSTYYADSVKGRFTISRDNAKNTVYLQMNSLKPEDTAVYYCNADATPDWLRVDTYEYWGQGTQVTVSS | low polyreactivity |
| QVHLVESGGGLVQAGGSLRLSCAASGSIRVEYAMGWNRQAPGKERELVATITDSGNTNYADSVKGRFTISRDNAKNTVYLQMNSLKPEDTAVYYCAADAYPYYWLDQAFGYDYWGQGTQVTVSS | low polyreactivity |
| QVQLVESGGGIVQAGGSLLLSCAASGSTIIRYVKGWYRQAPGTERELVAGINSSAGSTNYADSVKGRFTISRDNAKNTVYLQMISLKPEDTAVYYCNADLRSEYDYWGQGTQVTVSS | low polyreactivity |
| QVQLVESGGRLVQAGGSLRLSCAPSGRTLGRYTMGWYRQAPGKERELVAGISSGGSTNYADSVKGRFTISRDNAKNTVYLQMNSLKPEDTAVYYCNSRGYSYGARYYYWGQGTQVTLSS | high polyreactivity |
| QVQLVESGGGLVQAGGSLRLSCAASGSIFNYNAMGWYRQAPGKERELVAAISSGGSTNYADSVKGRFTISRDNAKNTVYLQMNSLKPEDTAVYYCAKRWWVYYPRYDYWGQGTQVTVSS | high polyreactivity |
| QVQLVESGGGLVQAGGSLRLSCAASGSIFLNNAMGWYSQAPGKERELVAAITRNVGSTYYADSVKGRFTISRDNAKNTVYLQMNSMKPEATAVYYCAADRRRRYDYWGQGTQVTVSS | low polyreactivity |
| QVQLVESGGGLVQAGGSLRLSCAASGSIFKTNAMGWYRQAPGKERELVAGISNGGSTNYADSVKGRFTISRDNAKNTVYLQMNSLKPEDTAVYYCAAPYTSQTIPDYVRYFIEYDYWGQGTQVTVSS | low polyreactivity |
| QVQLVESGGGLVQAGGSLRLRCAASGSTFAYYAMGWYRQAPGKEREFVATITWTGGSTNYADSVKARFTISRDNAKNTVYLQMNSLKPEDTAVYYCAAAFVISYDYWGQGTQVTVSS | high polyreactivity |
| QVQLVESGGGLVQAGGSLRLRCAASGSTFRANAMGWYRQAPGKERELVAAISWSGGRTYYADSVKGRFTISRDNAKNTVYLQMNSLKPEDTAVYYCAAPKLTSYDSWGQGTQVTVSS | high polyreactivity |
| QVQHVESGGGLVQAGGSLRLSCAASGSLFYGNTMGWARQAPGKERELVAAISNDDSRTYYADSVKGRFTISRDNAKNTVYLQMNSLKPEDTAVYYSATRGYPYRYRQTLNYWGQGTQVTVSS | high polyreactivity |
| QVQLVESGGGLLQAGGSLRLSCAASGFTIYRYAMGWYRQATGKERELVAAITGGGGSTYYADSVKGRFTISRDNAKNTVYLQMNSLKPEDTAVYYCAVDVYHIGQYRWSYGYWGQGTQVTVSS | low polyreactivity |
| QVQLVESGGGLVQAGGSLRLSCAASGSIFVTNGMGWYRQAPGKERELVAVISWGGGNTYYADSVKGRFTISRDNAKNTVYLQMNSLKPEDTAVYYCAVDIWGGEGYDSWGQGTQVTVSS | low polyreactivity |
